The record followed here is US20240141059A1 (Bristol-Myers Squibb, published 2024).

Substitutions are numbered along the chain they refer to. Some results are limits rather than exact numbers.

One assay has as its target T1, hCD16b-NA2 (human, UniProt O75015 17-200, limits assumed).
T1 construct: also called FcgRIIIb-NA2
In words: SPR, FcgR analyte on protein A captured dAb-Fc.

The next assay concerns the target T2, hCD16a-V158 (human, UniProt P08637 17-208, limits assumed).
T2 construct: also called FcgRIIIa-V158
In words: SPR, FcgR analyte on protein A captured dAb-Fc.

The next assay concerns the target T3, hCD32b (human, UniProt P31994 43-217).
T3 construct: also called FcgRIIb
T3 sequence (looked up): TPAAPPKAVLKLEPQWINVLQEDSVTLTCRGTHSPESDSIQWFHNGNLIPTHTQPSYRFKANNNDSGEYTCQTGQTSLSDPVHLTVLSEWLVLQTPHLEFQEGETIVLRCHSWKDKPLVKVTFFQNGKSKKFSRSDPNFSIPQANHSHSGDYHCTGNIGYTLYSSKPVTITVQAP
In words: SPR, FcgR analyte on protein A captured dAb-Fc.

The next assay deals with T4, hCD32a-R131 (human, UniProt P12318 34-217).
T4 construct: also called FcgRIIa-R131
T4 sequence (looked up): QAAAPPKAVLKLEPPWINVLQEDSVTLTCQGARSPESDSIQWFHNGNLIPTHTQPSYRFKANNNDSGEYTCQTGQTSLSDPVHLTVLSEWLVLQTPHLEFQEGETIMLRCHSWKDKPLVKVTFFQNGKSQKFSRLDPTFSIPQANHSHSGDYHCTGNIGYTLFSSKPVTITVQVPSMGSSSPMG
In words: SPR, FcgR analyte on protein A captured dAb-Fc.

The target of another assay is T5, hCD32a-H131 (human, UniProt P12318 34-217).
T5 construct: also called FcgRIIa-H131
T5 sequence (looked up): T4 sequence (looked up) with R134H
In words: SPR, FcgR analyte on protein A captured dAb-Fc.

For a further assay, the target named is T6, human GITR on cells (human, UniProt Q9Y5U5 26-241).
T6 sequence (looked up): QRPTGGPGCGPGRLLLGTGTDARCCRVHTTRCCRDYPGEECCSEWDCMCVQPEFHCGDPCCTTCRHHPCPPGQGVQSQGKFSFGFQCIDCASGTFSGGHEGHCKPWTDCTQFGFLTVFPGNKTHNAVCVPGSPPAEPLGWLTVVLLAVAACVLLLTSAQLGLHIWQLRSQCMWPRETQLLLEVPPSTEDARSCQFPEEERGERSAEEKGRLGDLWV
In words: cell-based or functional assay.

T2 sequence (P08637 17-208 F176V limits assumed): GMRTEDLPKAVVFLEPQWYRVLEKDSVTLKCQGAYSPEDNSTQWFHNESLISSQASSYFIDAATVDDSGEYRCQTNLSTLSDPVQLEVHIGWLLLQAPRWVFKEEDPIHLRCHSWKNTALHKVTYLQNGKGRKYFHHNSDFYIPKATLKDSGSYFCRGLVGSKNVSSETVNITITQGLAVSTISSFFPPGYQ
T1 sequence (O75015 17-200 N65S limits assumed): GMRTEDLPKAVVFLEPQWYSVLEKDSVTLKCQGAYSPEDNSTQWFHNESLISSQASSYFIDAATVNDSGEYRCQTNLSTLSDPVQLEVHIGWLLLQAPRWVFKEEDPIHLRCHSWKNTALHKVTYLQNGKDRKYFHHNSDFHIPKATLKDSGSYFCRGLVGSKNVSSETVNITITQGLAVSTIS

B1: 3h56-269-IgG1.1f (Fc fusion)
chain: EVQLLESGGGLVQPGGSLRLSCAASGFTFRDYEMWWVRQAPGKGLERVSAINPQGTRTYYADSVKGRFTISRDNSKNTLYLQMNSLRAEDTAVYYCAKLPFRFSDRGQGTLVTVSSASTEPKSCDKTHTCPPCPAPEAEGAPSVFLFPPKPKDTLMISRTPEVTCVVVDVSHEDPEVKFNWYVDGVEVHNAKTKPREEQYNSTYRVVSVLTVLHQDWLNGKEYKCKVSNKALPSSIEKTISKAKGQPREPQVYTLPPSREEMTKNQVSLTCLVKGFYPSDIAVEWESNGQPENNYKTTPPVLDSDGSFFLYSKLTVDKSRWQQGNVFSCSVMHEALHNHYTQKSLSLSPGK
B1: the Kd with hCD16b-NA2, in the assay with hCD16a-V158, in the assay with hCD32b, with hCD32a-R131 and with hCD32a-H131 was more than 5 µM each time.

B2: anti-GITR-IgG2 (antibody)
heavy: QVQLVESGGGVVQPGRSLRLSCAASGFTFSSYGMHWVRQAPGKGLEWVAVIWYEGSNKYYADSVKGRFTISRDNSKNTLYLQMNSLRAEDTAVYYCARGGSMVRGDYYYGMDVWGQGTTVTVSSASTKGPSVFPLAPCSRSTSESTAALGCLVKDYFPEPVTVSWNSGALTSGVHTFPAVLQSSGLYSLSSVVTVPSSNFGTQTYTCNVDHKPSNTKVDKTVERKCCVECPPCPAPPVAGPSVFLFPPKPKDTLMISRTPEVTCVVVDVSHEDPEVQFNWYVDGVEVHNAKTKPREEQFNSTFRVVSVLTVVHQDWLNGKEYKCKVSNKGLPAPIEKTISKTKGQPREPQVYTLPPSREEMTKNQVSLTCLVKGFYPSDIAVEWESNGQPENNYKTTPPMLDSDGSFFLYSKLTVDKSRWQQGNVFSCSVMHEALHNHYTQKSLSLSPGK
light: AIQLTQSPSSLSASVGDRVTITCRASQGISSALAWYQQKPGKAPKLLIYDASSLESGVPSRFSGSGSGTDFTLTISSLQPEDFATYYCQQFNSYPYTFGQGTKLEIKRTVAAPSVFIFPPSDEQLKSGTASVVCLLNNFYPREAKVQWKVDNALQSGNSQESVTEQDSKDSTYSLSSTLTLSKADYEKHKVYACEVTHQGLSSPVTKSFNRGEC
Take B2: the “NFKB signaling EC50” value with human GITR on cells is approximately 0.01 µM.
